Test results from publication PMC4861429 (The Journal of Biological Chemistry, 2016).
Residue numbers refer to the chain shown, from its start. Names may count otherwise.

B1: dimerization helix-containing PAS1 (residues 23–168) of TodS (domain or fragment, Pseudomonas putida F1, UniProt A5W4E3 23-168, looked up)
chain: KEKGSEELTCEEHARIIFDGLYEFVGLLDAHGNVLEVNQVALEGGGITLEEIRGKPFWKARWWQISKKTEATQKRLVETASSGEFVRCDVEILGKSGGREVIAVDFSLLPICNEEGSIVYLLAEGRNITDKKKAEAMLALKNQELE
notes: TodS sensor kinase of Pseudomonas putida F1, residues 23–168 (PAS1 domain with the predicted dimerization helix); In pHis-Parallel1 (NcoI/XhoI), which has a TEV site after the His6 tag; the tag was not removed for this construct; The forward primer adds Met-Gly before Lys23; also called PAS1(23–168); WT PAS1(23–168); source: E. coli C41(DE3), purified (Ni-NTA only); not shown: His6, …
B2: F46A-PAS1(23–168) (domain or fragment, Pseudomonas putida F1, UniProt A5W4E3 23-168, looked up)
chain: B1 chain with F24A
notes: TodS sensor kinase of Pseudomonas putida F1, residues 23–168 with F46A; source: E. coli C41(DE3), purified (Ni-NTA only); not shown: His6, N-terminal, kept
B3: V59A-PAS1(23–168) (domain or fragment, Pseudomonas putida F1, UniProt A5W4E3 23-168, looked up)
chain: B1 chain with V37A
notes: TodS sensor kinase of Pseudomonas putida F1, residues 23–168 with V59A; source: E. coli C41(DE3), purified (Ni-NTA only); not shown: His6, N-terminal, kept
B4: F79Y-PAS1(23–168) (domain or fragment, Pseudomonas putida F1, UniProt A5W4E3 23-168, looked up)
chain: B1 chain with F57Y
notes: TodS sensor kinase of Pseudomonas putida F1, residues 23–168 with F79Y; source: E. coli C41(DE3), purified (Ni-NTA only); not shown: His6, N-terminal, kept
B5: W85H-PAS1(23–168) (domain or fragment, Pseudomonas putida F1, UniProt A5W4E3 23-168, looked up)
chain: B1 chain with W63H
notes: TodS sensor kinase of Pseudomonas putida F1, residues 23–168 with W85H; source: E. coli C41(DE3), purified (Ni-NTA only); not shown: His6, N-terminal, kept
B6: E146A-PAS1(23–168) (domain or fragment, Pseudomonas putida F1, UniProt A5W4E3 23-168, looked up)
chain: B1 chain with E124A
notes: TodS sensor kinase of Pseudomonas putida F1, residues 23–168 with E146A; also called E146A mutant; source: E. coli C41(DE3), purified (Ni-NTA only); not shown: His6, N-terminal, kept
B7: TodS PAS2 (residues 611–729) (domain or fragment, Pseudomonas putida F1, UniProt A5W4E3 611-729, looked up)
chain: SEARWKAVYENSAAGIVLTDPENRILNANPAFQRITGYGEKDLEGLSMEQLTPSDESPQIKQRLANLLQGGGAEYSVERSYLCKNGSTIWANASVSLMPQRVGESPVILQIIDDITEKK
notes: TodS sensor kinase of Pseudomonas putida F1, residues 611–729 (PAS2 domain); also called PAS2(611–729); source: E. coli BL21 Star (DE3), purified (Ni-NTA, TEV protease, SEC Superdex G75, second Ni-NTA); not shown: His6, N-terminal, cleaved
B8: dimerization helix-containing TodS (residues 23–978) (enzyme, Pseudomonas putida F1, UniProt A5W4E3 23-978, looked up)
chain: KEKGSEELTCEEHARIIFDGLYEFVGLLDAHGNVLEVNQVALEGGGITLEEIRGKPFWKARWWQISKKTEATQKRLVETASSGEFVRCDVEILGKSGGREVIAVDFSLLPICNEEGSIVYLLAEGRNITDKKKAEAMLALKNQELEQSVECIRKLDNAKSDFFAKVSHELRTPLSLILGPLEAVMAAEAGRESPYWKQFEVIQRNAMTLLKQVNTLLDLAKMDARQMGLSYRRANLSQLTRTISSNFEGIAQQKSITFDTKLPVQMVAEVDCEKYERIILNLLSNAFKFTPDGGLIRCCLSLSRPNYALVTVSDSGPGIPPALRKEIFERFHQLSQEGQQATRGTGLGLSIVKEFVELHRGTISVSDAPGGGALFQVKLPLNAPEGAYVASNTAPRRDNPQVVDTDEYLLLAPNAENEAEVLPFQSDQPRVLIVEDNPDMRGFIKDCLSSDYQVYVAPDGAKALELMSNMPPDLLITDLIMPVMSGDMLVHQVRKKNELSHIPIMVLSAKSDAELRVKLLSESVQDFLLKPFSAHELRARVSNLVSMKVAGDALRKELSDQGDDIAILTHRLIKSRHRLQQSNIALSASEARWKAVYENSAAGIVLTDPENRILNANPAFQRITGYGEKDLEGLSMEQLTPSDESPQIKQRLANLLQGGGAEYSVERSYLCKNGSTIWANASVSLMPQRVGESPVILQIIDDITEKKQAQENLNQLQQQLVYVSRSATMGEFAAYIAHEINQPLSAIMTNANAGTRWLGNEPSNIPEAKEALARIIRDSDRAAEIIRMVRSFLKRQETVLKPIDLKALVTDTSLILKAPSQNNSVNLDVVADDELPEIWGDGVQIQQLIINLAMNAIEAISQADCETRQLTLSFSGNDTGDALVISVKDTGPGISERQMAQLFNAFYTTKKEGLGMGLAICLTITEVHNGKIWVECPPAGGACFLVSIPARQGSGT
notes: In pGST-Parallel1 (BamHI/XhoI); not shown: GST, N-terminal, cleaved
B9: TodS (residues 43–978), C-terminal His6-tagged (enzyme, Pseudomonas putida F1, UniProt A5W4E3 43-978, looked up)
chain: LYEFVGLLDAHGNVLEVNQVALEGGGITLEEIRGKPFWKARWWQISKKTEATQKRLVETASSGEFVRCDVEILGKSGGREVIAVDFSLLPICNEEGSIVYLLAEGRNITDKKKAEAMLALKNQELEQSVECIRKLDNAKSDFFAKVSHELRTPLSLILGPLEAVMAAEAGRESPYWKQFEVIQRNAMTLLKQVNTLLDLAKMDARQMGLSYRRANLSQLTRTISSNFEGIAQQKSITFDTKLPVQMVAEVDCEKYERIILNLLSNAFKFTPDGGLIRCCLSLSRPNYALVTVSDSGPGIPPALRKEIFERFHQLSQEGQQATRGTGLGLSIVKEFVELHRGTISVSDAPGGGALFQVKLPLNAPEGAYVASNTAPRRDNPQVVDTDEYLLLAPNAENEAEVLPFQSDQPRVLIVEDNPDMRGFIKDCLSSDYQVYVAPDGAKALELMSNMPPDLLITDLIMPVMSGDMLVHQVRKKNELSHIPIMVLSAKSDAELRVKLLSESVQDFLLKPFSAHELRARVSNLVSMKVAGDALRKELSDQGDDIAILTHRLIKSRHRLQQSNIALSASEARWKAVYENSAAGIVLTDPENRILNANPAFQRITGYGEKDLEGLSMEQLTPSDESPQIKQRLANLLQGGGAEYSVERSYLCKNGSTIWANASVSLMPQRVGESPVILQIIDDITEKKQAQENLNQLQQQLVYVSRSATMGEFAAYIAHEINQPLSAIMTNANAGTRWLGNEPSNIPEAKEALARIIRDSDRAAEIIRMVRSFLKRQETVLKPIDLKALVTDTSLILKAPSQNNSVNLDVVADDELPEIWGDGVQIQQLIINLAMNAIEAISQADCETRQLTLSFSGNDTGDALVISVKDTGPGISERQMAQLFNAFYTTKKEGLGMGLAICLTITEVHNGKIWVECPPAGGACFLVSIPARQGSGT
notes: In pET28b(+) (NcoI/XhoI); source: E. coli BL21 Star (DE3), purified (Ni-NTA, SEC Superdex G200); not shown: His6, C-terminal, kept

How the values were obtained:
[1] = biological target: the molecule itself; experiment: SEC; purified His6-tagged PAS1(23–168) compared with the markers BSA (66 kDa) and carbonic anhydrase (29 kDa)
[2] = biological target: the molecule itself; experiment: not stated; the protein used for ITC is called 'the E146A mutant dimer'; how the dimer was shown for this mutant is not told
[3] = biological target: the molecule itself; experiment: SEC; purified PAS2(611–729) compared with the marker carbonic anhydrase (29 kDa)
[4] = biological target: the molecule itself; experiment: SEC-MALS; TodS(23–978) 1 mg/ml on Superdex G200, PBS pH 7.3 with 10% glycerol and 5 mM DTT, 0.25 ml/min, 25 °C
[5] = biological target: the molecule itself; experiment: negative-stain electron microscopy with Ni-NTA gold labelling; Ni-NTA gold (5 nm) on C-terminal His6-tagged TodS(43–978), negatively stained with 1% uranyl acetate

Row | Protein | stoichiometry N [1] | further results
1 | B1 | 2 | –
2 | B2 | 2 | –
3 | B3 | 2 | –
4 | B4 | 2 | –
5 | B5 | 2 | –
6 | B6 | – | stoichiometry N [2]: 2
7 | B7 | – | stoichiometry N [3]: 2
8 | B8 | – | stoichiometry N [4]: 2
9 | B9 | – | stoichiometry N [5]: 2
